Test [1] concerns the target T1, TfR1 (species not stated; Biacore analyses of Table 14 and Table 16) (Homo sapiens (Human), UniProt P02786 89-760).
T1 construct: also called target antigen
The test is described as follows: Biacore kinetic analysis. Further details: unit not given here. (In general: In SPR one partner is held on a chip, and binding of the other changes the refractive index at the surface.)

In test [2] the target is T2, cynomolgus monkey transferrin receptor 1 (cTfR1) (cynomolgus monkey (Macaca fascicularis), UniProt Q5RDH6 89-760 (Pongo abelii entry), limits assumed).
T2 construct: Recombinant cynomolgus TfR1; also called cyTfR1; cyno TfR1
T2 chain: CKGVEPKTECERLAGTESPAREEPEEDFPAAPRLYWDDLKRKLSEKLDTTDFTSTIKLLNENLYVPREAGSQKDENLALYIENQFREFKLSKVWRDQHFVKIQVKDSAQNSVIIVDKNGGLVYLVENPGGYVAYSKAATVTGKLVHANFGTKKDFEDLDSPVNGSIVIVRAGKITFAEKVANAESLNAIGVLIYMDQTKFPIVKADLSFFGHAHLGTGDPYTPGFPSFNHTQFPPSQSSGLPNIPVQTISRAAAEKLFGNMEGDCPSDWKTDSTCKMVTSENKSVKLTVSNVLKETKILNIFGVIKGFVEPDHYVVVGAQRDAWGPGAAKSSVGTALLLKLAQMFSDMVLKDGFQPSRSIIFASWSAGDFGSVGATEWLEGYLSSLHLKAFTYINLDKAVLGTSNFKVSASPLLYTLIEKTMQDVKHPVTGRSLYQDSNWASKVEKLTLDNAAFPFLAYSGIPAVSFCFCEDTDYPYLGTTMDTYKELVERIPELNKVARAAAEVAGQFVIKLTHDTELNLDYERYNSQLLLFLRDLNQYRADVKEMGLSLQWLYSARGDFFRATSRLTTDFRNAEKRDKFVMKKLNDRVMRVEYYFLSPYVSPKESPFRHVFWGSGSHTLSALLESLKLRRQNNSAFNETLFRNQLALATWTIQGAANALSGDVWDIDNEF
Put plainly: ELISA, cyno TfR1, Fab after 9 days at 40 C. For orientation: In an ELISA, binding on a coated surface is turned into a signal by an enzyme label.

In test [3] the target is T2, cynomolgus monkey transferrin receptor …. Put plainly: ELISA on plate-coated cyno TfR1, unconjugated Fab.
Test [4] has the same target. The test is described as follows: ELISA, cyno TfR1, Fab, day 0 of thermal stability test.
Test [5] has the same target. Put plainly: average KD, antibody alone; method not given.
The target of test [6] is T3, human transferrin receptor 1 (hTfR1) (human, UniProt P02786 89-760).
T3 construct: Recombinant human TfR1; also called huTfR1; Human TfR1
The test is described as follows: average KD, antibody alone; method not given.

The target in test [7] is T3, human transferrin receptor 1 (hTfR1). The test is described as follows: Carterra LSA SPR, IgG captured on anti-IgG chip, hTfR1 injected, 25 C, 1:1 fit.
Test [8] deals with T2, cynomolgus monkey transferrin receptor …. Put plainly: surface plasmon resonance.

Residue numbers refer to the chain shown, from its start. Names may count otherwise.

B1: humanized anti-TfR Fab 3A4 VH3 (N54S)/Vk4 (Fab, V domains shown)
VH: EVQLVQSGSELKKPGASVKVSCTASGFNIKDDYMYWVRQPPGKGLEWIGWIDPESGDTEYASKFQDRVTVTADTSTNTAYMELSSLRSEDTAVYYCTLWLRRGLDYWGQGTLVTVSS
VL: DIVMTQSPLSLPVTPGEPASISCRSSKSLLHSNGYTYLFWFQQRPGQSPRLLIYRMSNLASGVPDRFSGSGSGTDFTLKISRVEAEDVGVYYCMQHLEYPFTFGGGTKVEIKR
Regarding B1, the koff in test [1] amounted to 65.6. Besides, the “Binding affinity cyno TfR1 d 9” value in test [2] is 248 nM. Besides, in test [3], the “Fab binding affinity ELISA” value came out at 398 nM. For the same molecule, the “Binding affinity cyno TfR1 d 0” value in test [4] amounted to 398 nM.

B2: humanized anti-TfR Fab 3A4 VH3/Vk4 (Fab, V domains shown)
VH: B1 VH with S55N
VL: B1 VL
In turn, B2 yielded a koff in test [1] of 115. Moreover, the “Binding affinity cyno TfR1 d 9” value in test [2] worked out at 878 nM. Besides, the “Fab binding affinity ELISA” value in test [3] worked out at 122 nM. For the same molecule, the “Binding affinity cyno TfR1 d 0” value in test [4] came out at 122 nM.

B3: 5-H12 mouse monoclonal anti-TfR1 antibody (antibody, V domains shown)
VH: QIQLQQSGPELVRPGASVKISCKASGYSFTDYCINWVNQRPGQGLEWIGWIYPGSGNTRYSERFKGKATLTVDTSSNTAYMQLSSLTSEDSAVYFCAREDYYPYHGMDYWGQGTSVTVSS
VL: DIVLTQSPTSLAVSLGQRATISCRASESVDGYDNSFMHWYQQKPGQPPKLLIFRASNLESGIPARFSGSGSRTDFTLTINPVEAADVATYYCQQSSEDPWTFGGGTKLEIK
notes: Mouse mAb (IgG)
For B3, binding in test [5] was characterised by a dissociation constant (Kd) of 12 nM.

B4: 15G11 (control anti-TfR1 antibody) (antibody, V domains shown)
VH: QVQLQQPGAELVKPGASVKLSCKASGYTFTSYWMHWVKQRPGQGLEWIGEINPTNGRTNYIEKFKSKATLTVDKSSSTAYMQLSSLTSEDSAVYYCARGTRAYHYWGQGTSVTVSS
VL: DIQMTQSPASLSVSVGETVTITCRASDNLYSNLAWYQQKQGKSPQLLVYDATNLADGVPSRFSGSGSGTQYSLKINSLQSEDFGTYYCQHFWGTPLTFGAGTKLELK
In the case of B4, the figures for the Kd in test [6], in test [5] and in test [7] were 0.8 nM, 1 nM and 0.283 nM, respectively.

B5: humanized anti-TfR Fab 3M12 VH4/Vk3 (Fab, V domains shown)
VH: QVQLQESGPGLVKPSQTLSLTCTVTGYSITSGYYWNWIRQPPGKGLEWIGYITFDGANNYNPSLKNRVSISRDTSKNQFSLKLSSVTAEDTATYYCTRSSYDYDVLDYWGQGTTVTVSS
VL: DIQMTQSPSSLSASVGDRVTITCRASQDISNFLNWYQQKPGQPVKLLIYYTSRLHSGVPSRFSGSGSGTDFTLTISSLQPEDFATYYCQQGHTLPYTFGQGTKLEIKR
Take B5: in test [8], the Kd (as a rule, the free concentration of one partner at which half of the binding sites on the other are occupied at equilibrium, for simple one-to-one binding) was found to be 5.18 nM; the koff amounted to 0.000476 s⁻¹; the kon (commonly the rate constant with which the complex forms) amounted to 91900 M⁻¹ s⁻¹. The “Binding affinity cyno TfR1 d 9” value in test [2] came out at 16.4 nM. Moreover, in test [3], the “Fab binding affinity ELISA” value was 2.2 nM. The “Binding affinity cyno TfR1 d 0” value in test [4] came to 2.2 nM.

Values taken from patent publication US20240016952A1 (published 2024).
